Assay [1] concerns the target L43A ubiquitin (UniProt P0CG48). In words: NMR titration.
The target is the same in assay [2]. In words: NMR titration. This is another data set of the same source.
Assay [3] shares this target. The assay can be described thus: 15N T1 relaxation.

Read-outs that look alike come from different tables or passages of the source.

One may read the Kd as the constant that tells how readily two partners part at equilibrium. Lower therefore signals a tighter complex. The stoichiometry N is the number of molecules, sites or subunits per partner or assembly.

On to “ubiquilin-1 UBA domain (UQ1-UBA) construct (from UniProt Q9UMX0 541-586) (domain or fragment)”, for which the figures for the Kd with L43A ubiquitin [1] and with L43A ubiquitin [2] were 28 µM and 26 µM, respectively. In the assay with L43A ubiquitin [3], the stoichiometry N turned out to be 1.

As to “UBA2 domain of hHR23a (from UniProt P54725 1-363) (domain or fragment)”, in the assay with L43A ubiquitin [2], the stoichiometry N was found to be 1.

For the origin of these results see PMC3951674.
